# According to PMC6168691, “The amino‐terminal domain of Mycobacterium tuberculosis ClpB protein plays a crucial role in its substrate disaggregation activity” (FEBS Open Bio, 2018):
# Values joined by “and” are separate entries in the source; they are usually repeats but may differ in a detail not shown here. Equal values may be shown once.
# B1: FITC-labelled casein (natural protein)
# chain: RPKHPIKHQGLPQEVLNENLLRFFVAPFPEVFGKEKVNELSKDIGSESTEDQAMEDIKQMEAESISSSEEIVPNSVEQKHIQKEDVPSERYLGYLEQLLRLKKYKVPQLEIVPNSAEERLHSMKEGIHAQQKEPMIGVNQELAYFYPELFRQFYQLDAYPSGAWYYVPLGTQYTDAPSFSDIPNPIGSENSEKTTMPLW
# modifications: FITC label
# Tests used:
# FITC-labelled casein = assay: fluorescence polarisation
# [1] = biological target: Mycobacterium tuberculosis DnaK (Mycobacterium tuberculosis) (UniProt P9WMJ9)
# [2] = biological target: recombinant firefly luciferase (firefly) [luciferase: P08659]
# [3] = biological target: KJE chaperone complex (DnaK, DnaJ1, GrpE of Mycobacterium tuberculosis) (Mycobacterium tuberculosis | Mycobacterium tuberculosis H37Rv) (UniProt P9WMJ9)
# [4] = biological target: malate dehydrogenase from pig heart (pig) (UniProt P00346)
# [5] = biological target: malate dehydrogenase from pig heart (pig) (UniProt P00346); remark: listed apart in the source
# [6] = biological target: recombinant firefly luciferase (firefly) [luciferase: P08659]; remark: listed apart in the source
# [7] = biological target: N-terminally truncated Mycobacterium tuberculosis ClpB (ClpB∆N, residues 149–848) (Mycobacterium tuberculosis H37Rv) (UniProt P9WPD1); assay: SEC; Superdex-200 (1 × 60 cm), buffer A; protein loaded at 6 mg/mL, no nucleotide
# [8] = biological target: N-terminally truncated Mycobacterium tuberculosis ClpB (ClpB∆N, residues 149–848) (Mycobacterium tuberculosis H37Rv) (UniProt P9WPD1); assay: SEC; Superdex-200, buffer A; protein 0.2 mg/mL incubated with 5 mM ATP for 10 min at room temperature before loading
# [9] = biological target: N-terminally truncated Mycobacterium tuberculosis ClpB (ClpB∆N, residues 149–848) (Mycobacterium tuberculosis H37Rv) (UniProt P9WPD1); assay: SEC; Superdex-200 (1 × 60 cm), buffer A (50 mM Tris/HCl pH 7.5, 100 mM KCl, 10% glycerol, 1 mM EDTA, 1 mM DTT); protein loaded at 0.2 mg/mL, no nucleotide
# [10] = biological target: T1, Mycobacterium tuberculosis ClpB, full length (residues 1–848) (Mycobacterium tuberculosis H37Rv, UniProt P9WPD1 1-848); assay: fluorescence polarisation; conditions: both partners purified
# T1 construct: also called Mtb ClpB; WT ClpB
# [11] = biological target: T1, Mycobacterium tuberculosis ClpB, full …; assay: fluorescence polarisation; conditions: both partners purified; remark: listed apart in the source
# Sequence of malate dehydrogenase from pig heart (pig) (P00346 25-338): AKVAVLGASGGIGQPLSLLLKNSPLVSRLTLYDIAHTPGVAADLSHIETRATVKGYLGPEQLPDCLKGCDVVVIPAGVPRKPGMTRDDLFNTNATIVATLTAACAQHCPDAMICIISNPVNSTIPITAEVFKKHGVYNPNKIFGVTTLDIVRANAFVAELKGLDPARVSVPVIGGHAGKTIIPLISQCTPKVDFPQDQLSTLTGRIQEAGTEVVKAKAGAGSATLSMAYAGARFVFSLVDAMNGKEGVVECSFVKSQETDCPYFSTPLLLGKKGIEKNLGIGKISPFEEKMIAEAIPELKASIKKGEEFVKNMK
# Sequence of recombinant firefly luciferase (firefly) [luciferase: P08659] (P08659 whole entry, the tested form may be a part): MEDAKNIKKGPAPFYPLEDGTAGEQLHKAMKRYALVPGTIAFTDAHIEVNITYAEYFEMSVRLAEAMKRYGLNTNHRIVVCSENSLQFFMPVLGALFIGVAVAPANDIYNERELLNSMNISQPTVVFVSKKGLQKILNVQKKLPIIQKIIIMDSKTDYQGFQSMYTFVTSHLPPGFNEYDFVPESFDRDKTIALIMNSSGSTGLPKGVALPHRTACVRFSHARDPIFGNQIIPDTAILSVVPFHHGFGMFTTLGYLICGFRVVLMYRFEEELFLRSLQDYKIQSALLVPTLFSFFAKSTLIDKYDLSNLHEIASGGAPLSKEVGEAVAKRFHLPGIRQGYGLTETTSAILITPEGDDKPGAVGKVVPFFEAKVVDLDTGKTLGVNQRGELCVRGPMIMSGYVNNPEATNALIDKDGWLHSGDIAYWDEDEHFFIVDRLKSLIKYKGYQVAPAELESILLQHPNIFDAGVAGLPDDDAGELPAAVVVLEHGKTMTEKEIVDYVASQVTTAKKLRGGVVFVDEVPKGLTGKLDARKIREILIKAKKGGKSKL
molecule,measurement,setting,value
Mycobacterium tuberculosis ClpB L97D (from UniProt P9WPD1 1-848) (natural protein),Kd,FITC-labelled casein,10 µM
Mycobacterium tuberculosis ClpB L101Q (from UniProt P9WPD1 1-848) (natural protein),Kd,FITC-labelled casein,5.3 µM
Mycobacterium tuberculosis ClpB V141K (from UniProt P9WPD1 1-848) (natural protein),Kd,FITC-labelled casein,10 µM
Mycobacterium tuberculosis ClpB F140T (from UniProt P9WPD1 1-848) (natural protein),Kd,FITC-labelled casein,24 µM
"N-terminally truncated Mycobacterium tuberculosis ClpB (ClpB∆N, residues 149–848) (from UniProt P9WPD1 149-848) (domain or fragment)",ATPase activity of ClpB∆N left at 1 mM ADP (5 mM ATP) with 1 μM DnaK,[1],17%
same,prevention of heat aggregation of luciferase by the highest concentration of ClpB∆N in the absence of ATP,[2],24%
same,"reactivation of small aggregates of MDH by 1 μM ClpB∆N with 1 μM KJE complex (about 25% by ClpB∆N alone, 3.6% by KJE alone)",[3],32%
same,"reactivation of small aggregates of MDH by 1 μM ClpB∆N alone, percent of native MDH activity",[4],25%
same,drop of reactivation activity of ClpB∆N alone on large against small aggregates of MDH,[5],80%
same,drop of reactivation activity of ClpB∆N with KJE on large against small aggregates of MDH,[5],48%
same,"reactivation of large aggregates of luciferase by ClpB∆N against ClpB, alone and with KJE (luminescence)",[6],> 20%
same,Kd,FITC-labelled casein,6.94 µM
same,stoichiometry N,[7],6 and 4
same,stoichiometry N,[8],6
same,stoichiometry N,[9],6 and 2
B1,Kd,[10],0.88 ± 0.47 µM
same,Kd,[11],0.9 µM
